B1: OR4K15 (parent)
chain: GUUAACGGUCAUAGGCCAUGGAAACUAGGAGCACCAUUUCGCUGCCAGUGAAGAAAUGAACAAAGAAAAUCUGGGCCAGGCAGGCAUCAAAAGAAAUAGUCUUGCGCUCAACCAGAAAGUCUGUAAUCAUUUUAAGGGUA

Variants of: B1
Experiment: self-cleavage, relative activity (ratio to wild type); higher = more cleavage; in vitro, sequencing; the parent is a self-cleaving ribozyme

Variant | self-cleavage
U43A A54G | 0.83
C40A A95G | 2.53
C42U C128U | 1.41
U43C U108G | 0.02
C40U A114U | 0.1
U39C G41U | 1.16
U39C G41A | 2
G44A G93C | 1.87
G41A A117G | 0.44
G41A U100C | 1.52
G41U A86U | 1.98
U43G U103A | 1.15
U43C A110U | 1.68
U39C U97C | 1.29
U43C A47U | 0.96
G41U A82G | 0.2
U39C A64G | 1.88
G44A U57C | 1.84
U43G U100C | 2.82
G41A A82U | 0.14
U39C A78G | 0.26
U43A U131C | 0.91
U43C A59G | 0.68
C40U A51U | 2

Variant | self-cleavage
G44A U132A | 1.35
U43A U103C | 1.1
U39C C81U | 0.63
U39C A51G | 1.5
U43G A67G | 1.89
U43G A67U | 2.63
U39C A98G | 0.98
C42A C45A | 1.75
U43G A129G | 1.19
U39G A126G | 1.03
U39C G53A | 1.53
G44A U130C | 0.64
G41C A111G | 0.02
U39G A62G | 1.3
G44C A52G | 1.4
G41U A78G | 0.36
U43A U97C | 0.92
U43A U72A | 0.2
U43A U72C | 0.27
G41A A110C | 0.4
U43A A82G | 0.13
U43A A82U | 0.12
U43C G58U | 0.07
U43C G58A | 0.64

Variant | self-cleavage
U43C A95G | 2.15
G41A A129G | 0.61
G41A A64G | 2.12
C40G A90G | 1.44
C42A A98G | 0.37
U43C A91G | 1.29
G44A A125C | 1.48
U39C A82U | 0.22
C40U U87C | 1.44
C42U U130C | 1.09
U43A A111C | 0.03
U43A A111G | 0.03
G44A A111G | 0.01
U43C A114G | 0.55
C40U A98G | 0.83
U43C A98U | 1.68
U39C G99A | 0.3
G41A U43A | 1.69
G41A U43C | 1.72
G41C A52G | 1.59
U43C C113U | 0.04
U39C C105U | 0.24
G44A A51G | 2.19
C42U U103A | 1.01

Variant | self-cleavage
U43C A96G | 1.09
U43C A96C | 1
U43C G83A | 1.59
U43C G83U | 0.67
U39C A95U | 1.78
U39C A69C | 1.33
C42U A62G | 1.26
U43C A64U | 1.82
U43C A64G | 1.66
G41U A94U | 1.48
C40U A118G | 1.21
C40U G44A | 2.32
C40A A60G | 1.56
G41C A69G | 1.84
C42A A110G | 0.16
U39C A63G | 1.66
G41A A63G | 1.4
C40U U108C | 0.02
G44A G74A | 0.17
U43C A51U | 1.35
U43C G99C | 0.26
C40U A78U | 0.32
C40U A78G | 0.44
U43C A118G | 1.02

Variant | self-cleavage
U43G A114G | 0.27
U43G A114U | 0.1
U39C U108A | 0.03
C40A A59U | 2
U39C C128U | 1.42
U39C C128A | 0.73
U43G A54U | 1.97
U39G A90G | 1.08
U43C A63U | 0.91
U43C A63G | 1.8
U43A A114G | 0.86
G41U A51G | 1.69
G41U A91G | 1.31
U43C U103A | 0.41
U43C U103C | 1.03
G41A A116G | 0.63
C40U A89G | 1.33
C40U A89U | 1.93
U39C A52U | 2.16
U43A A78U | 1.02
U43A A78G | 0.14
C40A | 1.83
C40G | 1.62
C40U | 1.57

Variant | self-cleavage
U39C G115U | 0.04
G44A G65A | 0
C42U A118G | 0.7
C40U A111G | 0.02
G41C U139A | 1.78
G44A A91G | 0.42
U39C A68G | 1.37
C45A A51G | 1.35
U39C A96C | 0.78
U39C A96U | 1.52
U39C A96G | 1.77
U43C A94U | 1.77
U43C A94G | 1.78
U39G U102C | 2.67
G44A A117G | 1.66
U39C U103C | 0.93
C42U A66G | 1.64
G41A A89G | 2.8
G44A A94G | 1.48
U43A A52G | 1.6
U43G A69G | 2.1
C40U A63G | 2.13
U43C C121U | 2.03
U39C A135C | 1.38

Variant | self-cleavage
U43C A90G | 0.97
C40A A91G | 1.76
U39C A110G | 0.14
U43G A90G | 0.51
U43C C88U | 1.59
C42A A52G | 1.41
G41A C113U | 0.02
U39C A47U | 0.79
C40A A114G | 0.11
U43G A89G | 1.26
C40U U103A | 1.28
U43A A62G | 0.93
U43C A92U | 1.6
G41A G136A | 1.2
U43A A89G | 1.77
G41A A54U | 1.03
C40A A51G | 1.81
U43A A129G | 0.65
U43C U120A | 2.06
U39C A118U | 0.78
U39C U139C | 1.9
U39C U87A | 1.92
U39C C40U | 1.54
